According to paper PMC9426499:

System: ParRB(pJIR4165) (Clostridium perfringens plasmid pJIR4165)
Test: SPR

Row | Sequence | binding signal
1 | AGGTATAAACTCAGTATATACATGATTGAA / TTCAATCATGTATATACTGAGTTTATACCTCCTACCCTACGTCCTCCTGC [parCB B17] | 368 RU
2 | TAGTATATATCTAGTATATACTAAATTTAT / ATAAATTTAGTATATACTAGATATATACTACCTACCCTACGTCCTCCTGC [parCB B21] | 377 RU
3 | TCACTATATGTATATACTGAATATATACAT / ATGTATATATTCAGTATATACATATAGTGACCTACCCTACGTCCTCCTGC [parCB B2] | 383 RU
4 | TTTATTAATTTCACTATATGTATATACTGA / TCAGTATATACATATAGTGAAATTAATAAACCTACCCTACGTCCTCCTGC [parCB B1] | 58 RU

System: ParRD(pJIR3118) (Clostridium perfringens plasmid pJIR3118 (CN1020 gDNA))
Test: SPR

Row | Sequence | binding signal
5 | ATACTAATTAATATTATTTAATTATTGACT / AGTCAATAATTAAATAATATTAATTAGTATCCTACCCTACGTCCTCCTGC [parCD D13] | 187 RU
6 | GAATAATATTAAATAATATCAAATAATATT / AATATTATTTGATATTATTTAATATTATTCCCTACCCTACGTCCTCCTGC [parCD D3] | 225 RU
7 | AGGTTATTTAATGTTAAATGATATTAAATA / TATTTAATATCATTTAACATTAAATAACCTCCTACCCTACGTCCTCCTGC [parCD D9] | 213 RU
8 | ACATTAAAAGATACTAATTAATATTATTTA / TAAATAATATTAATTAGTATCTTTTAATGTCCTACCCTACGTCCTCCTGC [parCD D12] | 250 RU
9 | ATGTTAAATGATATTAAATAACATTAAAAG / CTTTTAATGTTATTTAATATCATTTAACATCCTACCCTACGTCCTCCTGC [parCD D10] | 270 RU
10 | ATATTAAATAACATTAAAAGATACTAATTA / TAATTAGTATCTTTTAATGTTATTTAATATCCTACCCTACGTCCTCCTGC [parCD D11] | 236 RU
11 | AAATAATATCAAATAATATTATTTAATGTC / GACATTAAATAATATTATTTGATATTATTTCCTACCCTACGTCCTCCTGC [parCD D4] | 232 RU
12 | TTTATTAATTTCACTATATGTATATACTGA / TCAGTATATACATATAGTGAAATTAATAAACCTACCCTACGTCCTCCTGC [parCB B1] | 1.1 RU

System: ParRC(pCW3) (Clostridium perfringens plasmid pCW3)
Test: SPR

Row | Sequence | binding signal
13 | ATCACAATTTTACGTAATGACAGTTTGTTG / CAACAAACTGTCATTACGTAAAATTGTGATCCTACCCTACGTCCTCCTGC [parCC C2] | 54 RU
14 | ATTTTACGGAAAATGCTTGATTTAGATTGA / TCAATCTAAATCAAGCATTTTCCGTAAAATCCTACCCTACGTCCTCCTGC [parCC C7] | 9 RU
15 | AATATAAAAACATAAACATCACAATTTTAC / GTAAAATTGTGATGTTTATGTTTTTATATTCCTACCCTACGTCCTCCTGC [parCC C11] | 154 RU
16 | ACAATTTTACGTAATTTAGATTTTGCAAGT / ACTTGCAAAATCTAAATTACGTAAAATTGTCCTACCCTACGTCCTCCTGC [parCC C13] | 48 RU
17 | AAAAAACATCACAATTTTACATAATAGAAA / TTTCTATTATGTAAAATTGTGATGTTTTTTCCTACCCTACGTCCTCCTGC [parCC C16] | 311 RU
18 | TTTTGCAAGTAAAAAACATCACAATTTTAC / GTAAAATTGTGATGTTTTTTACTTGCAAAACCTACCCTACGTCCTCCTGC [parCC C15] | 217 RU
19 | CATAAACATCACAATTTTACGTAATTTAGA / TCTAAATTACGTAAAATTGTGATGTTTATGCCTACCCTACGTCCTCCTGC [parCC C12] | 348 RU
20 | GTAATTTAGATTTTGCAAGTAAAAAACATC / GATGTTTTTTACTTGCAAAATCTAAATTACCCTACCCTACGTCCTCCTGC [parCC C14] | 42 RU
21 | AAAATGAAAAAAACATCACAATTTTACGGA / TCCGTAAAATTGTGATGTTTTTTTCATTTTCCTACCCTACGTCCTCCTGC [parCC C5] | 249 RU
22 | AATTAAAAACATCACAATTTTACGTAATGA / TCATTACGTAAAATTGTGATGTTTTTAATTCCTACCCTACGTCCTCCTGC [parCC C1] | 256 RU
23 | TTTATTAATTTCACTATATGTATATACTGA / TCAGTATATACATATAGTGAAATTAATAAACCTACCCTACGTCCTCCTGC [parCB B1] | -2.8 RU
24 | AAACATCACAATTTTACGGAAAATGCTTGA / TCAAGCATTTTCCGTAAAATTGTGATGTTTCCTACCCTACGTCCTCCTGC [parCC C6] | 282 RU
